From the RNAGym collection of RNA variant scans (doi:10.7554/elife.90254)

B1: OR4K15 (parent)
chain: GUUAACGGUCAUAGGCCAUGGAAACUAGGAGCACCAUUUCGCUGCCAGUGAAGAAAUGAACAAAGAAAAUCUGGGCCAGGCAGGCAUCAAAAGAAAUAGUCUUGCGCUCAACCAGAAAGUCUGUAAUCAUUUUAAGGGUA

Variants of: B1
Assay: self-cleavage, relative activity (ratio to wild type); higher = more cleavage; in vitro, sequencing; the parent is a self-cleaving ribozyme

Going from GUUAACGGUCAUAGGCCAUGGAAACUAGGAGCACCAUUUCGCUGCCAGUGAAGAAAUGAACAAAGAAAAUCUGGGCCAGGCAGGCAUCAAAAGAAAUAGUCUUGCGCGCAACCAGAAAGUCUGUAAUCAUUUUAGGGGUA [U108G A135G] to GUUAACGGUCAUAGGCCAUGGAAACUAGGAGCACCAUUUCGCUGCCAGUGAAGAAACGAACAAAGAAAAUCUGGGCCAGGCAGGCAUCGAAAGAAAUAGUCUUGCGCUCAACCAGAAAGUCUGUAAUCAUUUUAAGGGUA [U57C A89G], the self-cleavage rises from 0.01 to 0.75.

First: GUUAACGGUCAUAGGCCAUGGAAACUAGGAGCACCAUUUCGCUGCCAGUGAAGAAAUGAACAAAGAAAAUCUGGGCCAGGCAGGCAUCAAAAGAAAUAGUCUUGCGCUCAAUCAGAAAGUCUGUAAUCAUUUUAAGGGUA [C112U]
Second: GUUAACGGUCAUAGGCCAUGGAAACUAGGAGCACCAUUUCGCUGCCAGUGAAGAAAUGAACCAAGAAAAUCUGGGCCAGGCAGGCAUCAAAAGAAAAAGUCUUGCGCUCAACCAGAAAGUCUGUAAUCAUUUUAAGGGUA [A62C U97A]
The self-cleavage of the first is lower: 0.02 for the first, 1.86 for the second.

Compared with GUUAACGGUCAUAGGCCAUGGAAACUAGGUGCACCAUUUCGCUGCCAGUGAAGAAAUGAACAAAGAAAAUCUGGGCCAGGCAGGCAUCAAAAGAAAUAGUCUUGCGCUCAACCAGAAAAUCUGUAAUCAUUUUAAGGGUA [A30U G119A], GUUAACGGUCAUAGGCCAUGGAAACUAGGAGCACCAUUUCGCUGCCAGUGAAGAAAUGAACAAAGAAAAUCUGGGCCAGGCAGUCAUUAAAAGAAAUAGUCUUGCGCUCAACCAGAAAGUCUGUAAUCAUUUUAAGGGUA [G84U C88U] is lower in self-cleavage: 2.38 for the first, 0.52 for the second.

Going from GUUAACGGUCAUAGGCCAUGGAAACUAGGGGCACCAUUUCGCUGCCAGUGAAGAAAUGAACAGAGAAAAUCUGGGCCAGGCAGGCAUCAAAAGAAAUAGUCUUGCGCUCAACCAGAAAGUCUGUAAUCAUUUUAAGGGUA [A30G A63G] to GUUAACGGUCAUAGGCCAUGGAGACUAGGAGCACCAUUUCGCUGCCAGUGAAGAAAUGAACAAAGAAAAUCUGGGCCUGGCAGGCAUCAAAAGAAAUAGUCUUGCGCUCAACCAGAAAGUCUGUAAUCAUUUUAAGGGUA [A23G A78U], the self-cleavage falls from 1.57 to 0.36.

Going from GUUAACGGUCAUAGUCCAUGGAAACUAGGAGCACCAUUUCGCUGCCAGUGAAGAAAUGAACAAAGAAAAUCGGGGCCAGGCAGGCAUCAAAAGAAAUAGUCUUGCGCUCAACCAGAAAGUCUGUAAUCAUUUUAAGGGUA [G15U U72G] to GUUAACGGUCAUAGGCCAUGGAAACUAGGAGCACCAUUUCGCUGCCAGUGAAGAAAUGAACAAAGAAAAUCUGGGCCAGGCAGGCAUCAAAAGAAAUAGUCUUGCGCUCAAUCAGAGAGUCUGUAAUCAUUUUAAGGGUA [C112U A117G], the self-cleavage falls from 0.36 to 0.01.

Compared with GUUAACGGUCAUAGGCCAUGGAAACUAGGAGCACCAUUUCGCUGCCAGUGAAGAAAUGAACAAAGAAAAUCUGGGCCAGGCAGGCAUCAAAAGAAAUAGUCUUGCGCUCAACCAGAAAGUCUGUAAUCAAUUUAAGGGUG [U130A A140G], GUUAACGGUCGUUGGCCAUGGAAACUAGGAGCACCAUUUCGCUGCCAGUGAAGAAAUGAACAAAGAAAAUCUGGGCCAGGCAGGCAUCAAAAGAAAUAGUCUUGCGCUCAACCAGAAAGUCUGUAAUCAUUUUAAGGGUA [A11G A13U] is lower in self-cleavage: 1.02 for the first, 0.72 for the second.

First: GUUAACGGUCAUAGGCCAUGGAAACUAGGAGCACCAUUUCGCUGCCAGUGAAGAAAUGAACAAAGAAAAUCUGGGCCAGGCAGGCAUCAUAAGAAAUAGUCUUGCGCUCAACCAGAAAGUCUGUAAUCGUUUUAAGGGUA [A90U A129G]
Second: GUUAACGGUCAUAGGCCUUGGAAACUAGGAGCACCAUUUCGCUGCCAGUGAAGAAAUGAACAAAGAAAAUCUGGGCCAGGCAGGCAUCAAAAGAAAUAGUCUUGCGCUCAACCAGAAAGUCUGUAAUCAUUUCAAGGGUA [A18U U133C]
The self-cleavage of the first is lower: 1.51 for the first, 2.02 for the second.

Going from GUUAACGGUCAUAGGCCAUGGAAACUAGGAGCGCCAUUUCGCUGCCAGUGAAGAAAUGAACAAAGAAAAUCUGGGCCAGGCAGGCAUCAAAAGAAAUAGUCUUGCGCUCAACCAGUAAGUCUGUAAUCAUUUUAAGGGUA [A33G A116U] to GUUAACGGUCAUAGGCCAUGGAAACUAGGAGCCCCAUUUCGCUGCCAGUGAAGAAAUGAACAAAGAAAAUCUGGGCCAGGCAGGCAUCAAAAGAAAUAGUCUUGCGCCCAACCAGAAAGUCUGUAAUCAUUUUAAGGGUA [A33C U108C], the self-cleavage falls from 0.21 to 0.01.

Going from GUUAACGGUCAUAGGCCAUGGAAACUAGGAGCACCAUUUCGCUGCCAGUGAAGAAAUGAACAAAGAAAAUCUGGGCCAGGCAGGCAUCAAAAGAAAUAGUCUUGCGCUCAGCCCGAAAGUCUGUAAUCAUUUUAAGGGUA [A111G A114C] to GUUAACGGUCAUAGGCCAUGGAAACUAGGAGCACCAUUUCGCUGCCAGUGAAGAAAUGAACAAAGAAAAUCUGGGCCAGGCAGGCAUCAAAAGAAAUAGUCUUGCGCUCAACCAGAAAGUCUGUAAUCAAUUUAAGGGUA [U130A], the self-cleavage rises from 0 to 0.92.

Going from GUUAACGGUCAUAGGCCAUGGAAACUAGGAGCACCAUUUCGCUGCCAGUGAAGGUAUGAACAAAGAAAAUCUGGGCCAGGCAGGCAUCAAAAGAAAUAGUCUUGCGCUCAACCAGAAAGUCUGUAAUCAUUUUAAGGGUA [A54G A55U] to GUUAACGGUCAUAGGCCAUGGAAACUAGGAGCACCAUUUCGCUGCCAGUGAAGAAAUGAACAAAGAAAAUCUGGGCCAGGCAGGAAUCAAAAGAAAUAGUCUUGCGCUCAACCAGAAAGUCUGUAAUCAUUUUGAGGGUA [C85A A134G], the self-cleavage rises from 1.55 to 1.83.

Compared with GGUAACGGUCACAGGCCAUGGAAACUAGGAGCACCAUUUCGCUGCCAGUGAAGAAAUGAACAAAGAAAAUCUGGGCCAGGCAGGCAUCAAAAGAAAUAGUCUUGCGCUCAACCAGAAAGUCUGUAAUCAUUUUAAGGGUA [U2G U12C], GUUAACGGUCGUAGGCCAUGGAAACUAGGAGCACCAUUUCGCUGCCAGUGAAGAAAUGAACAAAGAAAAUCUGGGCCAGGCAGGCAUCAAAAGAAAUAGUCUUGCGCCCAACCAGAAAGUCUGUAAUCAUUUUAAGGGUA [A11G U108C] is lower in self-cleavage: 0.61 for the first, 0.01 for the second.

Going from GUUAACGGUCAUAGGCCACGGAAACUAGGAGCACCAUUUCGCUGCCAGUGAAGAAAUGAACAAAGAAAAUCUGGGCCAGGCAGGCAUCAAAAGAAAUAGUCUUGCGCUCAACCAGAAGGUCUGUAAUCAUUUUAAGGGUA [U19C A118G] to GUUAACGGUCAUAGGCCAUGGAAACUAGGAGCACCAUUUCGCUGCCGGUGAAGAAAUGAACAAAGAAAAUCUGGGCCAGGCAGGCAUCAAAAGAGAUAGUCUUGCGCUCAACCAGAAAGUCUGUAAUCAUUUUAAGGGUA [A47G A95G], the self-cleavage rises from 1.27 to 1.71.

Compared with GUUAACGGUCAUAGGCCAUGGAAACUAGGAGCACCAUUUCGCUGCCUGUGAAGAAAUGAACAAAGAAAAUCUGGGCCAGGCAGGCAUCAAAAGAAAUAGUCUUGCGCUCAACCAGAAAGUCUGUAAUCAUUGUAAGGGUA [A47U U132G], GUUAACGGUCAUAGGCCAUGGAAACUAGGAGCACCAUUUCGCUGCCAGUGAAGAAAUGAACAAAGAAAUUCUGGGCCAGGCAGGCAUCAAAAGAAAUAGUCUUGCGCUCAACCAGAAAGUCUGUAAUCAUCUUAAGGGUA [A69U U131C] is higher in self-cleavage: 0.61 for the first, 1.33 for the second.

Compared with GUUAACGGUCAUAGGCCAUGGAAACUAGGAGCACCAUUUCGCGGCCAGUGAAGAAAUGAACAAAGAAAAUCUGGGCCAGGCAGGCAUCGAAAGAAAUAGUCUUGCGCUCAACCAGAAAGUCUGUAAUCAUUUUAAGGGUA [U43G A89G], GUUAACGGUCAUAGGCAAUGGAAACUAGGAGCACCAUUUCGCUGCCAGUGAAGAAAUGAACAAAGAAAAUCUGGGCCAGGCAGGCAUCAAAAGAAAUAGUCUUGCGCUCAACCAGAAAGUCUGUAAUCAUUUUACGGGUA [C17A A135C] is lower in self-cleavage: 1.26 for the first, 1.23 for the second.

Going from GUUAACGGUCAUAGGCCAUGGAAACUAGGAGCACCAUUUCGCUGCCAGAGAAGAAAUGGACAAAGAAAAUCUGGGCCAGGCAGGCAUCAAAAGAAAUAGUCUUGCGCUCAACCAGAAAGUCUGUAAUCAUUUUAAGGGUA [U49A A59G] to GUUAACGGUCAUAGGCCAUGGAAACUAGGAGCACCACUUCGCUGCCAGUGAAGAAAUGAUCAAAGAAAAUCUGGGCCAGGCAGGCAUCAAAAGAAAUAGUCUUGCGCUCAACCAGAAAGUCUGUAAUCAUUUUAAGGGUA [U37C A60U], the self-cleavage rises from 1.44 to 1.69.

Compared with GUUAACGGUCAUAGGCCAUGGAAACUAGGAGCACCACUUCGCUGCCAGUGAAGAAAUGAACAAAGAAAAUCUGGGCCAGGCAGGCAUCAAAAGAAAUGGUCUUGCGCUCAACCAGAAAGUCUGUAAUCAUUUUAAGGGUA [U37C A98G], GUUAACGGCCAUAGGCCAUGGAAACUAGGAGCACCAUUUCGCUGCCAGUGAAGAAAUGAACAAAGAAAAUCUGGGCCAGGCAGGCAUCAAAAGAAACAGUCUUGCGCUCAACCAGAAAGUCUGUAAUCAUUUUAAGGGUA [U9C U97C] is higher in self-cleavage: 0.8 for the first, 1.09 for the second.

Going from GUUAACGGUCAUAGGCCAUGGAAACUAGGAGUACCAUUUCGCUGCCAGUGAAGAAAUGAACAAAGAAAAUCUGGGCCAGGCAGGCAUCAAAAGAAAUAGUCUUGCGCUCAACCAGAAAGUCUGUAAUCAUUUUAAGGGCA [C32U U139C] to GUUAACGGUCAUAGGCCAUGGAAACUAGGAGCACCAUUUCGCUGCCAGUGAAGAAAUGAACAAAGAAAAUCUGGGCCAGGCAGGCAUCAAAAGGAAUAGUCUUGCGCUCAACCAGAAAGUCUGUAAUCAUUUUAAGGGUA [A94G], the self-cleavage falls from 1.64 to 1.39.

Going from GUUAACGGUCAUAGGCCGUGGAAACUAGGAGCACCAUUUCGCUGCCAGUGAAGAAAUGAACAAGGAAAAUCUGGGCCAGGCAGGCAUCAAAAGAAAUAGUCUUGCGCUCAACCAGAAAGUCUGUAAUCAUUUUAAGGGUA [A18G A64G] to GUUAAGGGUCAUAGGCCAUGGAAACUAGGAGCACCAUUUCGCUGCCAGUGAAGAAAUGAACAAAGAAAAUCUGGGCCAGGCAGGCACCAAAAGAAAUAGUCUUGCGCUCAACCAGAAAGUCUGUAAUCAUUUUAAGGGUA [C6G U87C], the self-cleavage falls from 1.11 to 0.65.

First: GUUAACGGUCAUAGGCCAUGGAAACUAGGAGCACCAUUUCGCUGCCAGUGAAGAAAUGAACAAAGAAAACCUGGGCCAGGCAGGCAUCAAAAGAAAUAGUCUUGCGCUCAACCAGGAAGUCUGUAAUCAUUUUAAGGGUA [U70C A116G]
Second: GUUAACGGUCAUAGGCCAUGGAAACUAGGAGCACCAUUUCGCUGCCAGUGAAGAAAUGAACAAAGAAAAUCUGGGCCAGGCAGGCAUCAAAAGAAAUGGUCUUGCGCUCAACCAGAAAGUCUGUAAUCAUUUAAAGGGUA [A98G U133A]
The self-cleavage of the first is higher: 1.52 for the first, 0.24 for the second.

First: GUUAACGGUCUUAGGCCAUGGAUACUAGGAGCACCAUUUCGCUGCCAGUGAAGAAAUGAACAAAGAAAAUCUGGGCCAGGCAGGCAUCAAAAGAAAUAGUCUUGCGCUCAACCAGAAAGUCUGUAAUCAUUUUAAGGGUA [A11U A23U]
Second: GUUAACGGUCAUAGGCCAUGGAAACUAGGAGCGCCAUUUCGCUGCCAGUGAAGAAAUGAACAAAGAAAAUCUGGGCCAGGCAGGCAUCAAAAGAAAUAGUCUUGCGCUCAACCAGAAAGUCUGUAAUCAUUUUAGGGGUA [A33G A135G]
The self-cleavage of the first is higher: 0.71 for the first, 0.69 for the second.

Variant GUUAACGGUCAUAGGCCAUGGAAACUAGGAGCACCAUUUCGCUGCCAGUGAAGAAAUGAACAAAGAAAAUCUGGGCCAGGCAGGCAUCAAAGGAAAUAGUCUUGCGCUCAACCAGAAAGUCUGUCAUCAUUUUAAGGGUA [A92G A125C] has a self-cleavage of 1.44.
